# The DeepSol protein solubility set
# Test: soluble on expression in E. coli; label from the status in PepcDB or PDB records
row,Sequence,soluble on expression in E. coli
1,MGSDKIHHHHHHMGLMDFRPYFRVTVDGKDISGVLAPRLVSLRVTDGAGVQSDTVEIRLSDTNLFQRISEPRAGAEIEVWLGFPLSLSYMGLFVADTIETGGPPDTVTITGTASVNGETTSGKTALTDQKKRSWPEGTTIGAMVEKIASEHGLIAMVSESLRAEALPHIDQIDESDINLLSRIARDFDAIAKPGNGRLIMTRRGESLTASGQPLPVVRVDKSSVTEWRYRNSLRERVGRVIATTQDLEAGQPVEVEAGQGEPALRLRRRFPDKVTARKTAESELKRLGRAGRSLSITMPGNSDIVAEARLSASGFRSYIDGEWLVSRATHILDSGGYRTAITAEPVE,not soluble
2,MAGTGLLALRTLPGPSWVRGSGPSVLSRLQDAAVVRPGFLSTAEEETLSRELEPELRRRRYEYDHWDAAIHGFRETEKSRWSEASRAILQRVQAAAFGPGQTLLSSVHVLDLEARGYIKPHVDSIKFCGATIAGLSLLSPSVMRLVHTQEPGEWLELLLEPGSLYILRGSARYDFSHEILRDEESFFGERRIPRGRRISVICRSLPEGMGPGESGQPPPACLEHHHHHH,soluble
3,MNILLCCSAGMSTSLLVTKMEAAAKARGLEGKIWAVSGDAVKTNIDQADVLLLGPQVRYMLSSMKTLADERNVGIDVINPMHYGMMNGEAVLDHALTLKK,not soluble
4,MGSDKIHHHHHHMATETLTKSDAITQSLRAAVDRNFNDQVAFLQRMVQFRSVRGEEAPQQEWLAQQFADRGYKVDTFSLADVDIASHPKAAPMDTIDPAGSMQVVATADSDGKGRSLILQGHIDVVPEGPVDLWSDPPYEAKVRDGWMIGRGAQDMKGGVSAMIFALDAIRTAGYAPDARVHVQTVTEEESTGNGALSTLMRGYRADACLIPEPTGHTLTRAQVGAVWFRLRVRGTPVHVAYSETGTSAILSAMHLIRAFEEYTKELNAQAVRDPWFGQVKNPIKFNVGIIKGGDWASSTAAWCELDCRLGLLTGDTPQEAMRGIEKCLADAQATDSFLSENPAELVWSGFQADPAVCEPGGVAEDVLTAAHKAAFNAPLDARLSTAVNDTRYYSVDYGIPALCYGPYGQGPHAFDERIDLESLRKTTLSIALFVAEWCGLRKL,not soluble
5,MIPRVRAPELPQNYPWLNTEQPLSIKQLNGRVVILDFWTYCCINCLHVLPDLKYLEQKYKDSLTVIGVHSAKFDNEQETENIRQAILRYDIEHPVLVDKDFRVWQEYAVRAWPTLMVIDPKGYVIGYVSGEGNRDKLDQLITQVIQEHQGAINFQQLSLTLEKQRQPLITPLAFPGKVLATPSGLFVADSGHHRIVVSDFNGEILHLIGNGKSGLTDGNFQEAQFSAPQGMAFDMENQILYLADTENHALRRVDINQQTVETIAGTGEQSRNIQPHGGVGLETALNSPWDLVNIENSLYIAMAGVHQIWQMDLASGVIKTYAGTGVEACLDASLTESAFAQPSGITNNEQELYIADSEISSIRGVGLVEPQEVRTVCGSGGLFGFGDVDGQGEDVRLQHCLGVEYFQNYLWVADTYNHKIKSVSPHTGNCQTVLGDGLAGLQNGQGKNTRFFEPSGLSAIDSYLYISDTNNHVIRRVDLRTLEVTTMQFNGLCAPDVCIPNNFLEHHHHHH,not soluble
6,MTTYTFDQVEEAIEQLYPDFTINTIEISGEGNDCIAYEINGNFIFKFPKHSRASINLLNEVTVLKTIHNELSLPIPEVVFTGMPSEMCQMSFAGFTKIKGVPLTPLLLKNLPKQSQDQAAKDLARFLSELHSINISGFKSNLVLDFREKINEDNKKIKKLLSRELKGHQMKKVDDFYRDILDNEIYFKYYPCLIHNDFSSDHILFDTEKNTICGIIDFGDAAISDPDNDFISLMEDDEEYGMEFVSKILNHYKHKDIPTVLEKYMMKEKYWSFEKIIYGKEYGYMDWYEEGLNEIRSIKIK,soluble
7,MAHHHHHHMDEEVVLRGVEDITCRCVYSHVYVYARVCVFGYVLPSSSVVYRGTLAMECTFGVHEKKNKMKKNKCYLRGQTIGTRDTVCGVMCLNIPPRHCYCSFFLFPFYNPFLL,not soluble
8,MGHHHHHHSHMGYKLQDLTDVQIMARLQEESLRQDYASTSASVSRHSSSVSLSSGKKGTCSDQEYDQYSLEDEEEFDHLPPPQPRLPRCSPFQRGIPHSQTFSSIRECRRSPSSQYFPSNNYQQQQYYSPQAQTPDQQPNRTNGDKLRRSMPNLARMPSTTAISSNISSPVTVRNSQSFDSSLHGAGNGISRIQSCIPSPGQLQHRVHSVGHFPVSIRQPLKATAYVSPTVQGSSNMPLSNGLQLYSNTGIPTPNKAAASGIMGRSALPRPSLAINGSNLPRSKIAQPVRSFLQPPKPLSSLSTLRDGNWRDGCY,not soluble
